This passage reports Kd, koff and kon results from patent US20240368289A1 (LAEKNA THERAPEUTICS SHANGHAI, published 2024).

B1: clone B (Fab) (Fab, V domains shown)
VH: QVQLVQSGAEVKKPGSSVKVSCKASGFQFRTSLISWVRQAPGQGLEWMGGIIPIYGTANYAQKFQGRVTITADESTSTAYMELSSLRSEDTAVYYCVKDLTWTNLGLDIWGQGTMVTVSS
VL: EIVMTQSPSSLSASVGDTVTITCRASQGVSRWLAWYQQKPGKAPRLLIYAASSLHSGVPSRFSGSGSGTHFTLTISSLQPEDFATYFCQQSYSTPFTFGPGTKLEIK
notes: Fab made in E. coli TG1 and purified on Ni-NTA
B2: clone E (Fab) (Fab, V domains shown)
VH: B1 VH with I51L, Y55F
VL: B1 VL with G28S, V29I, S30G, Q90E, T94N, F96Y
notes: as for B1
B3: clone D (Fab) (Fab, V domains shown)
VH: QVQLVQSGAEVKKPGSSVKVSCKASGQFYHSRISWVRQAPGQGLEWMGGLIPIFGTANYAQKFQGRVTITADESTSTAYMELSSLRSEDTAVYYCVKDLTWTNLGLDIWGQGTMVTVSS
VL: B1 VL with G28S, V29I, S30G, Q90E, T94N, F96Y
notes: as for B1
B4: clone G (Fab) (Fab, V domains shown)
VH: B1 VH with F27R, Q28H, R30G, T31S, S32L, L33Q
VL: B1 VL
notes: as for B1
B5: clone C (Fab) (Fab, V domains shown)
VH: B1 VH with F27R, Q28E, R30E, T31S, S32L, L33F
VL: B1 VL
notes: as for B1
B6: clone H (Fab) (Fab, V domains shown)
VH: B1 VH with F27L, Q28G, R30H, T31N, S32F, L33Q
VL: B1 VL
notes: as for B1
B7: clone I (Fab) (Fab, V domains shown)
VH: B1 VH with F27E, Q28S, R30E, T31H, S32F, L33Q
VL: B1 VL
notes: as for B1
B8: clone K (Fab) (Fab, V domains shown)
VH: B1 VH with F27M, Q28P, R30Q, T31Q, L33Q
VL: B1 VL
notes: as for B1

Changes are numbered by the printed parent chain.

For one experiment, the target named is T1, recombinant protein comprising the human ACVR2A extracellular domain (ECD) fused to the human IgG1 Fc region (human, UniProt P27037 20-135).
T1 construct: extracellular domain; also called ACVR2A-Fc; ACVR2A-FC; not shown: human IgG1 Fc region
T1 sequence (P27037 20-135): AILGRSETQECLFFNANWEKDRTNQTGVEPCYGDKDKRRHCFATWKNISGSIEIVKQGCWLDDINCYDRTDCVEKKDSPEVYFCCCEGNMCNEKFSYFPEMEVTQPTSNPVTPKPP
Kind of experiment: SPR, Biacore 3000 (1st test); ACVR2A-Fc captured by anti-human Fc, Fab injected. The source says: (§1) 2.2 Surface Plasmon resonance (SPR) measurements and affinity analysis by anti-human Fc capture format. After affinity panning, output-3 (03) of CDRH1 library were screened for binding ability by Fab ELISA and followed by NGS DNA sequencing. Based on binding Elisa and sequence abundance from NGS data, 11 clones were select for SPR analysis. Approximately 100-800 resonance units (RU) of antigen ACVR2A, was captured by anti-human Fc immobilized on a channel of a CM5 chip with an activated amine group. After immobilization, Fab antibodies were injected into the channels at 25° C. in HBS-EP buffer, with a flow rate of 30 μL/min, 1 min. When the data collection was finished in each cycle, the sensor surface was regenerated using 80 mM NaOH with a flow rate of 30 μL/min, 15 sec and reused chip in next cycle. After subtraction of reference surface and buffer injection, curve was locally fitted with BIA evaluation version 4.1 using a 1:1 Langmuir binding mode.
(§2) The affinity of selected 11 anti-ACVR2A monoclonal antibody clones were determined on Biacore®3000 and Biacore®8000 as shown in Table 4 below.
B1: the Kd came out at 6.81 nM, the koff is 0.0022 s⁻¹ and the on-rate constant (kon) was 323000 M⁻¹ s⁻¹.

In the case of B2, the dissociation constant Kd was determined as 0.664 nM, the koff was 0.00019 s⁻¹ and the association rate constant (kon) was found to be 285000 M⁻¹ s⁻¹.

Take B3: the Kd was found to be 12.8 nM, the koff amounted to 0.00232 s⁻¹ and the on-rate (kon) is 181000 M⁻¹ s⁻¹.

For B4, the dissociation constant Kd came to 0.612 nM, the koff stood at 0.000152 s⁻¹ and the on-rate constant (kon) worked out at 248000 M⁻¹ s⁻¹.

On to B5, for which the dissociation constant Kd came to 1.14 nM, the koff stood at 4.16e-05 s⁻¹ and the association rate constant (kon) turned out to be 36500 M⁻¹ s⁻¹.

Consider B6, for which the Kd came to 2.25 nM, the koff was 0.000698 s⁻¹ and the kon is 311000 M⁻¹ s⁻¹.

For B7, the Kd worked out at 1.84 nM, the koff stood at 0.000468 s⁻¹ and the kon was 254000 M⁻¹ s⁻¹.

As to B8, the equilibrium dissociation constant (Kd) came out at 0.489 nM, the koff was 0.000256 s⁻¹ and the kon amounted to 523000 M⁻¹ s⁻¹.

The next experiment has as its target T1, recombinant protein comprising the …. Kind of experiment: SPR, Biacore 8000 (2nd test); ACVR2A-Fc captured by anti-human Fc, Fab injected.
From the text: as §1, §2
In general terms: Surface plasmon resonance follows binding to a sensor surface in real time, without labels.
As for B1, the Kd is 5.91 nM, the koff was found to be 0.00253 s⁻¹ and the kon came to 428000 M⁻¹ s⁻¹.

Turning to B2, the dissociation constant Kd came out at 0.501 nM, the dissociation rate constant (koff) came out at 0.000153 s⁻¹ and the kon turned out to be 307000 M⁻¹ s⁻¹.

Consider B3, for which the dissociation constant (Kd) worked out at 10.4 nM, the koff was found to be 0.00285 s⁻¹ and the kon is 273000 M⁻¹ s⁻¹.

Consider B4, for which the Kd turned out to be 0.443 nM, the koff was determined as 0.000282 s⁻¹ and the kon is 637000 M⁻¹ s⁻¹.

Consider B5, for which the equilibrium dissociation constant (Kd) was 3.08 nM, the off-rate (koff) turned out to be 0.000247 s⁻¹ and the on-rate (kon) is 90300 M⁻¹ s⁻¹.

B6: the Kd turned out to be 1.38 nM, the koff is 0.000901 s⁻¹ and the on-rate constant (kon) came out at 651000 M⁻¹ s⁻¹.

As to B7, the dissociation constant Kd came to 1.01 nM, the koff was 0.000379 s⁻¹ and the kon turned out to be 374000 M⁻¹ s⁻¹.

B8: the Kd was determined as 0.212 nM, the koff was determined as 0.000259 s⁻¹ and the association rate constant (kon) amounted to 1.22e+06 M⁻¹ s⁻¹.

As usually defined, the Kd is the free concentration of one partner at which half of the binding sites on the other are occupied at equilibrium, for simple one-to-one binding. By koff is commonly meant the rate constant with which the complex falls apart. By kon is commonly meant a measure of how fast the partners come together.
